Results as given in the supplement of paper PMC12764529.
± gives the half width of the 95% confidence interval.

Legend:
[1] = folding stability dG unfold (combined trypsin and chymotrypsin); higher = more stable
Procedure, shortened: (§1)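 Designed mini-proteins (under 80 residues, no cysteine) in a PA-tagged cDNA display construct were digested with trypsin and chymotrypsin. Each protease was used at 11 concentrations (threefold dilutions) plus a no-protease condition, followed by sequencing. K50 was inferred by Bayesian fitting of sequencing counts, and unfolding free energy was derived against a sequence-predicted unfolded-state K50 and a shared folded-state K50, per protease or combined. Only designs with AlphaFold2 dimer inter-PAE above 15 were kept.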

[2] = folding stability dG unfold from trypsin proteolysis; higher = more stable
Procedure, shortened: as §1

[3] = folding stability dG unfold from chymotrypsin proteolysis; higher = more stable
Procedure, shortened: as §1

Sequence | folding stability dG unfold [1] [kcal/mol] | folding stability dG unfold [2] [kcal/mol] | folding stability dG unfold [3] [kcal/mol]
SAGGSAGGSAGGPNHYVMATETIEFEFEIRTRNEDGKPQEIKIKFTLTVIRMFPLPPGDPSAGGSAGGSAGG [r7_926_TrROS] | 4.73 ± 0.25 | 3.36 ± 0.42 | 5.03 ± 0.26
SAGGSAPVVVVVTPKNGKPIKLKFKFTKKEEAEAAVEEIKKALPKNTKVEAFYVDEEVVKEDKEYLSAGGSA [r15_469_TrMRF] | 1.71 ± 0.054 | 1.16 ± 0.017 | 1.97 ± 0.068
SAGGSAMDAKVVDLSLPFTLSEDGSLTATVTIEFPDGSKVPIEIPGREDGELKLEEILAAAKEALGSAGGSA [r15_233_TrMRF] | 0.478 ± 0.14 | 0.553 ± 0.093 | 0.27 ± 0.069
SAGMYLVKITVTNEDGEKKEITVLVEAETEEEAREAAEELARELAEKYPEKIVEVKVEVVKLPPEVEPSAGG [r19_335_TrROS_Hall] | 4.98 ± 0.66 | 4.12 ± 0.19 | 4.77 ± 0.16
SMEVKIELTDEEIEAALEAGYEVEIEVRVVEVEYDEETDEVTVKVEVTITIRPVPPPPEVVVDEETGEILSA [r9_396_TrROS_Hall] | 1.27 ± 0.34 | 2.1 ± 0.23 | 0.342 ± 0.057
SAGGSAGGSKKKNKPAPPVLVVKVEIVKIELSDEELEAIKKNKEKIKEIYLIKIEVTLVEPEESAGGSAGGS [r12_196_TrROS_Hall] | 1.94 ± 0.14 | 1.17 ± 0.11 | 2.18 ± 0.062
SAGGSAGGSAGTLEALKNLKPGETVTLRVELRVERRYLDPNGKEHTEEVSTVTLELTLKPSAGGSAGGSAGG [r11_36_TrROS_Hall] | 3.49 ± 0.11 | 3.22 ± 0.11 | 3.62 ± 0.054
SAGGSAGGSAGIKIEWEQMPGGYMQYKVTIPDPNGKPLKIDVHYKSPEDAEEKAKELLKSSAGGSAGGSAGG [r11_819_TrROS] | 0.333 ± 0.2 | 0.215 ± 0.089 | 0.386 ± 0.26
SAGGSAGGSTLKLEIVNEDGYKVEIEAELELVEKDGKLVLKLKVKIKVEPAKEVKEVKVELPESAGGSAGGS [r12_581_TrROS_Hall] | 3.45 ± 0.44 | 1.95 ± 0.16 | 3.87 ± 0.2
SAGGGSMVTQTEFTLPDGTKVSESTLPDGTVTTTITDPTNPTVTTSPVRTVSPGPLSPANPALVAALSAGGS [r16_482_JUSTAS] | -0.317 ± 0.1 | -1.09 ± 0.18 | -0.17 ± 0.18
SAGGSAGGSAGGLPEDDNYVRVKITFTIMMMEFDPKNGKMQMFPISIEIEIYIPPGAELSAGGSAGGSAGGS [r10_133_TrROS] | 3.26 ± 0.22 | 2.36 ± 0.12 | 3.6 ± 0.25
SAGGSKVEIWIRFGDYWIRITVEPKPNGRKKVSVEVYNPNGEPMWSITFEIDPDGKIKDIDITPMPSAGGSA [r2_260_TrROS] | 5.01 ± 0.13 | 4.53 ± 0.23 | 5.03 ± 0.14
SAGGMTITIEKEGDTLKVTITIRDAATNETYTVEATLTRKEDGSLTLEIRFEDGSTKTINLKDIKLVSAGGS [r16_154_TrROS_Hall] | 3.76 ± 0.47 | 3 ± 0.21 | 4.11 ± 0.41
SAGITIIIRGPDAKEAAEDIAKELLKNGFKRPITVHVLDPDGKPWYRIKIQFDPKNPGKIKVKVEPYDSAGG [r19_85_TrROS] | 3.65 ± 0.076 | 3.39 ± 0.089 | 3.66 ± 0.042
SAGGSAGGSAGGHMVMITITIPIKKGAEIKFGDWDIKVPPGEQIQITIMIPVPPPDDDKSAGGSAGGSAGGS [r10_949_TrROS] | 2.79 ± 0.3 | 2.91 ± 0.16 | 2.8 ± 0.21
SAGGSAGGSASPVPVVEVEITPVKLPGDETAAKITVLLEGDGEPVVVWFDSKDVEKVIEEVLASAGGSAGGS [r20_238_JUSTAS] | 0.774 ± 0.11 | 0.293 ± 0.12 | 0.847 ± 0.025
SAGGSAGGSKKVKEVTITVKNKDGKTVKITKIYKKKDGSKYVLIKDKKTKKTYKISLEDLKKLSAGGSAGGS [r12_488_TrROS_Hall] | 1.8 ± 0.14 | 1.11 ± 0.05 | 2.29 ± 0.076
SAGGSAKPVIVKIHFPNMKPEKILELAKEFGAVPLKMDPNKGVAIVLATEEKVEEIAAKGNFKIEASAGGSA [r15_731_TrMRF] | 0.515 ± 0.26 | 0.736 ± 0.043 | 0.205 ± 0.39
SANEKVTVEVKIRFYFRFPKGQPFPFDITVPVTVEYDPNDPDKAKEEAKEKAIDEAIDEFRERFGYPLPSAG [r14_117_TrROS] | 2.37 ± 0.19 | 1.75 ± 0.13 | 2.72 ± 0.13
SAGGSAGGSKKVKIIEIDLKDMSPEEILELIKKEKVDAIIIKSDTPEAKRLAEKLKEAGFKVISAGGSAGGS [r12_610_TrROS_Hall] | 2.05 ± 0.059 | 1.46 ± 0.043 | 2.36 ± 0.055
SAGGMKIEIVEIEREGNTITIKAKITLPDGTVIEITAKAEFVDGELKLEIKVEVRKLPPPPPPPPEESAGGS [r8_458_TrROS_Hall] | 2.55 ± 0.53 | 2.87 ± 0.27 | 2.73 ± 0.39
